1 molecule from patent US20170043014A1 (Novo Nordisk, published 2017) can be followed below.

This assay addresses Recombinant mouse IL-21 (mouse, UniProt Q9ES17 18-146). As to the kind of experiment: capture style ELISA, clone selection.

B1: Mouse surrogate anti-IL-21 antibody (antibody, IgG1, V domains shown)
VH: EVQLVESGGGLVKPGGSLKLSCAASGFTFNRYSMSWVRQSPEKRLEWVAEISVGGSYTQYVDIVTGRFTISRDNAKNTLYLEMSSLRSEDTAMYYCARLYYSGSGDSYYYAMDYWGQGTSVTVSS
VL: QTVLIQSPAIMSASPGEKVTMTCSASSSVSYMHWYQQKSGTSPKRWIYDTSKLASGVPARFSGSGSGTSYSLTISSMEAEDAATYYCQQWNSNPPTFGGGTKLEMK
notes: mIgG1/kappa isotype
Turning to B1, the binding result is “binds”.
